The text below walks through data of publication PMC3796444 (PLoS ONE, 2013).

Residue numbers refer to the chain shown, from its start. In names and notes the source's numbering stands.

In series [1] the target is T1, alanine:glyoxylate aminotransferase (AGT), AGT WT (major allele) (Homo sapiens, UniProt P21549).
T1 construct: gene AGXT; His-tagged full-length AGT from pCOLDII, expressed in E. coli BL21, IMAC and SEC; about 90 kDa dimer
T1 sequence (P21549 1-392): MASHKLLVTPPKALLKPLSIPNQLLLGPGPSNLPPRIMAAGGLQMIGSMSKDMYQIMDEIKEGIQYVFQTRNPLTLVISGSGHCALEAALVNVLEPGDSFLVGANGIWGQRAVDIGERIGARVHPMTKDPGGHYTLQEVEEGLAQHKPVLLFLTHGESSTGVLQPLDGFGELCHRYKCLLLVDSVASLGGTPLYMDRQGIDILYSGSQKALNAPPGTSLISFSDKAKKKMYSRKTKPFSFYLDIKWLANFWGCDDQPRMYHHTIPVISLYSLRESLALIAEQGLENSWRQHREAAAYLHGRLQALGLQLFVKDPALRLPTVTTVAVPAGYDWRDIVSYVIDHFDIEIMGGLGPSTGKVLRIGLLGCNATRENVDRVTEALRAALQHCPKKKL
Put plainly: filtration ([…] kDa cut-off) and UV absorption of released PMP. Particulars: holo-enzyme 36 µM monomer with L-Ala, 1 h, 25°C. The class given is binding.

Series [2] addresses Hsc70 chaperones of the rabbit reticulocyte lysate (rabbit (endogenous in rabbit reticulocyte lysate)). In words: co-IP; AGT variants made with 35S-Met in rabbit reticulocyte lysate (TnT) at 30°C for 2 h, stopped with cycloheximide; immunoprecipitation with anti-Hsc70 antibodies; SDS-PAGE and fluorography.
Series [3] concerns the target T1, alanine:glyoxylate aminotransferase (AGT), AGT WT (major allele). In words: fluorescence equilibrium titration of apo-AGT. The class given is binding. Particulars: read-out: K d(PLP) (nM) ^b. The source says:
(§1) fluorescence equilibrium titration of apo-AGT on alanine:glyoxylate aminotransferase (AGT), AGT WT (major allele)

The target of series [4] is T2, alanine:glyoxylate aminotransferase (AGT), AGT WT (major allele) (Homo sapiens, UniProt P21549, A295T/I340M/P11L).
T2 construct: gene AGXT; His-tagged full-length AGT from pCOLDII, expressed in E. coli BL21, IMAC and SEC; about 90 kDa dimer
T2 sequence (P21549 1-392 P11L/A295T/I340M): T1 sequence (P21549 1-392) with P11L, A295T, I340M
In words: fluorescence equilibrium titration of apo-AGT. Particulars: read-out: K d(PLP) (nM) ^b. The series is classed as binding.
From the text: as §1

Series [5] has as its target T3, alanine:glyoxylate aminotransferase (AGT), AGT WT (major allele) (Homo sapiens, UniProt P21549, A368T/I340M/P11L).
T3 construct: gene AGXT; His-tagged full-length AGT from pCOLDII, expressed in E. coli BL21, IMAC and SEC; about 90 kDa dimer
T3 sequence (P21549 1-392 P11L/I340M/A368T): T1 sequence (P21549 1-392) with P11L, I340M, A368T
Put plainly: fluorescence equilibrium titration of apo-AGT. The class given is binding. To be noted: read-out: K d(PLP) (nM) ^b.
From the text: as §1

Series [6] addresses T4, alanine:glyoxylate aminotransferase (AGT), AGT WT (major allele) (Homo sapiens, UniProt P21549, I340M).
T4 construct: gene AGXT; His-tagged full-length AGT from pCOLDII, expressed in E. coli BL21, IMAC and SEC; about 90 kDa dimer
T4 sequence (P21549 1-392 I340M): T1 sequence (P21549 1-392) with I340M
Put plainly: fluorescence equilibrium titration of apo-AGT. The class given is binding. Particulars: read-out: K d(PLP) (nM) ^b.
From the text: as §1

In series [7] the target is T5, alanine:glyoxylate aminotransferase (AGT), AGT WT (major allele) (Homo sapiens, UniProt P21549, I340M/P11L).
T5 construct: gene AGXT; His-tagged full-length AGT from pCOLDII, expressed in E. coli BL21, IMAC and SEC; about 90 kDa dimer
T5 sequence (P21549 1-392 P11L/I340M): T1 sequence (P21549 1-392) with P11L, I340M
In words: fluorescence equilibrium titration of apo-AGT. The class given is binding. To be noted: read-out: K d(PLP) (nM) ^b.
From the text: as §1

Series [8] deals with T6, alanine:glyoxylate aminotransferase (AGT), AGT WT (major allele) (Homo sapiens, UniProt P21549, I340M/P11L/R197Q).
T6 construct: gene AGXT; His-tagged full-length AGT from pCOLDII, expressed in E. coli BL21, IMAC and SEC; about 90 kDa dimer
T6 sequence (P21549 1-392 P11L/R197Q/I340M): T1 sequence (P21549 1-392) with P11L, R197Q, I340M
Put plainly: fluorescence equilibrium titration of apo-AGT. The series is classed as binding. Particulars: read-out: K d(PLP) (nM) ^b.
From the text: as §1

Substrate in series [9]: C[C@H](N)C(=O)O
Put plainly: LDH-coupled pyruvate assay, global double-displacement fit. The class given is biochemical, Homo sapiens. To be noted: glyoxylate 0-5 mM, 150 µM PLP, 0.1 M Na-phosphate pH 8, 25°C. The source says: (§2) LDH-coupled pyruvate assay, global double-displacement fit on alanine:glyoxylate aminotransferase (AGT), AGT WT (major allele)

Substrate in series [10]: O=CC(=O)O
The series is described as above. The series is classed as biochemical, Homo sapiens. To be noted: L-alanine 0-100 mM, 150 µM PLP, 0.1 M Na-phosphate pH 8, 25°C.
From the text: as §2

Series [11] concerns the molecule itself. Put plainly: SEC; purified recombinant AGT variants; single peak, elution volume of a ≈90 kDa dimer; data not shown.

For `Cc1ncc(COP(=O)(O)O)c(CN)c1O` [PMP], the “% PMP released” value in [1] is given as ~ 3%.
In series [2], “alanine:glyoxylate aminotransferase p.P11L, made in a cell-free system (from UniProt P21549 1-392) (enzyme)” registered a fold increase in immunoprecipitated AGT compared to WT of 4 fold.
As for `Cc1ncc(COP(=O)(O)O)c(C=O)c1O` [PLP], the Kd was 100 ± 30 nM in [3]; 71 ± 16 nM in [4]; 134 ± 26 nM in [5]; 172 ± 42 nM in series [6]; 157 ± 15 nM in series [7]; 156 ± 34 nM in [8].

B1: alanine:glyoxylate aminotransferase, wild type (major allele), recombinant His-tagged (enzyme, human)
chain: T1 sequence (P21549 1-392)
notes: alanine:glyoxylate aminotransferase (AGT), human, major allele; also called AGT WT; WT; source: E. coli BL21 (pCOLDII), purified (IMAC, SEC)
As for B1, the figures for the Km in [9] and in series [10] were 19.5 ± 1.4 mM and 0.245 ± 0.029 mM, respectively. The stoichiometry N (usually a count of units in the complex or per binding partner) in series [11] worked out at 2.

B2: alanine:glyoxylate aminotransferase minor allele (p.P11L/I340M), recombinant His-tagged (enzyme, human, UniProt P21549 1-392, looked up)
chain: T1 sequence (P21549 1-392) with P11L, I340M
notes: alanine:glyoxylate aminotransferase (AGT), human, minor allele; also called AGT LM; LM; source: E. coli BL21 (pCOLDII), purified (IMAC, SEC)
Take B2: in [9], the Michaelis-Menten constant (Km) (usually the substrate concentration at which the rate is half of its maximum) was found to be 19.8 ± 1.5 mM. Moreover, in [11], the “stoichiometry N” value came to 2.

B3: alanine:glyoxylate aminotransferase p.H83R on the minor allele, recombinant His-tagged (enzyme, human, UniProt P21549 1-392, looked up)
chain: T1 sequence (P21549 1-392) with P11L, H83R, I340M
notes: alanine:glyoxylate aminotransferase (AGT), human, PH1 mutation p.H83R in the minor allele; source: E. coli BL21 (pCOLDII), purified (IMAC, SEC)
Consider B3, for which the Michaelis-Menten constant (Km) came to 42.4 ± 2.4 mM in [9] and 0.156 ± 0.019 mM in [10]. Further, the “stoichiometry N” value in series [11] came out at 2.
